Test results reported in the supplement of paper PMC10126150.
± gives the standard deviation of the averaged measurements.

System: ATP
Assay: switch fluorescence ratio, 500 uM ATP over buffer (Cy3 cluster intensity, sum of 5 cycles each) (fold (ratio)); higher = stronger signal-on switching upon ATP binding; sequences stand for … in TCGTCGGCAGCGTCAGATGTGTATAAGAGACAGTTTTTTTTTTTTTTTTTTTTTTTTT…TC
Details: aptamer strand: ATP DNA aptamer (quencher-CACCTGGGGGAGTATTGCGGAGGAAGG + anchor), 100 nM annealed; ATP concentration: 500 uM
How it was run: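 Clusters carrying Cy3-labelled switching strands on a modified Illumina MiSeq flow-cell were annealed to 100 nM quencher-labelled ATP aptamer and imaged in selection buffer. They were imaged again after 15 min with 500 uM ATP at 22 °C, over five buffer/ATP cycles with NaOH stripping and re-annealing in between. For each cluster, the fluorescence ratio is the summed Cy3 intensity of the target cycles divided by that of the buffer cycles, averaged per switch-domain sequence. Clusters outside 100-1000 RFU were left out.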
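Also: ATP exposure 15 min at 22 °C before imaging.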

Sequence | switch fluorescence ratio
GTTGGTACTT | 0.991 ± 0.02
GGATTGTGAG | 0.987 ± 0.042
ACTAGGGGGG | 1.01 ± 0.022
TCTGTGGCTG | 1.05 ± 0.1
GTTTGATCTG | 0.959 ± 0.026
ACATTGGTAT | 1 ± 0.011
GAGGAACCGG | 1.05 ± 0.021
GGCTTTGTCC | 0.991 ± 0.032
GGAGGGCGTG | 0.988 ± 0.021
TACACGCCTT | 1.05 ± 0.015
GATACCTTTG | 1.72 ± 1
ATGCAGTCTA | 1.017 ± 0.005
TTATAAGCTT | 0.997 ± 0.021
GGTTTTGCAC | 1.03 ± 0.038
CCAAGCGCCC | 1.63 ± 0.23
CGGATTGAAG | 1.007 ± 0.0092
TGAAAGGGGA | 1.03 ± 0.054
AACGTTTTTT | 0.991 ± 0.027
AGGGGAGAGG | 0.992 ± 0.01
TGCAGGAGGG | 0.972 ± 0.022
TCAGACAGTT | 0.987 ± 0.0042
TCGGAAAGGA | 0.9814 ± 0.0016
GCTGTAGGCC | 1.02 ± 0.014

Sequence | switch fluorescence ratio
CGCTGTGGCG | 0.983 ± 0.036
TGGTTGTTAT | 1.008 ± 0.0058
GGATAGCTCG | 0.987 ± 0.041
TCGTGGGAAG | 0.9721 ± 0.0062
TGATATGTTT | 1.006 ± 0.002
AGTTTAAGTG | 1.01 ± 0.013
GGGTACGTCA | 1.03 ± 0.071
AGGAGACAAG | 0.948 ± 0.053
AAAAGACCCG | 1.07 ± 0.044
TTTTTAAATG | 0.991 ± 0.017
TGACGGGTTA | 1.02 ± 0.022
CAAGGGATTG | 0.992 ± 0.0058
CTGGAATCCG | 1.08 ± 0.015
GAAGGGGTTC | 1.06 ± 0.084
AGTTCGGTGG | 0.962 ± 0.0022
CAGAGAAAC | 1.1 ± 0.12
TCGGCTATGG | 1.01 ± 0.011
AGGTCGGCTT | 1.006 ± 0.0024
TTGTAATCAG | 0.966 ± 0.045
TTATTTTTT | 1.02 ± 0.018
TTTTGCTGCG | 1.023 ± 0.0033
GTACTCGAGC | 1 ± 0.018
TTGATTTATA | 0.983 ± 0.042

Sequence | switch fluorescence ratio
TCATTTCGA | 0.988 ± 0.02
TTTTGTGACA | 1 ± 0.027
AAGGGTTACG | 1 ± 0.025
TGGTCTCTTT | 1 ± 0.039
AGATGTTAGG | 0.981 ± 0.029
TTAATCGTGC | 0.98 ± 0.043
TTAGAGGATT | 1.004 ± 0.007
ATGGTAGCAA | 2.05 ± 0.14
TTTCGTGGAG | 0.996 ± 0.02
GGGTTAAGTA | 0.993 ± 0.031
CCCGGGAAAT | 1.04 ± 0.059
TTTATAGGGC | 1.01 ± 0.021
AACTGGGACT | 1.02 ± 0.041
AGGGCTGAGC | 0.996 ± 0.052
TGACGGGCAG | 1.07 ± 0.015
AAGTTGCGGG | 0.964 ± 0.078
ATTTTGCTGG | 0.999 ± 0.011
ATATGGAGCA | 1.03 ± 0.046
AGGCCGGTTT | 1.017 ± 0.0061
AAGGGGTGGT | 0.989 ± 0.032
GGAGGTGGGT | 1.01 ± 0.03
AAGGATGCAT | 1.03 ± 0.038
TGGTGGAATT | 1.02 ± 0.034

Sequence | switch fluorescence ratio
TTTGGGAGTG | 0.965 ± 0.037
TACTAACCAT | 1.12 ± 0.066
TTGCTATACG | 1.2 ± 0.13
GAGGTTGCTG | 0.987 ± 0.026
TGTCGGGTTA | 1.01 ± 0.027
AACTATATCT | 1.05 ± 0.021
AATATCACGG | 1.05 ± 0.029
GGCGCATGGA | 0.991 ± 0.023
AACGTGTGTG | 0.95018 ± 1.6e-05
CATATAAGTA | 0.9809 ± 0.0025
TTCGGGGTCG | 0.985 ± 0.072
CTAGGGGGGA | 0.997 ± 0.0052
TGCGTAGGGT | 0.967 ± 0.011
TAATGAGTGG | 1.0154 ± 0.001
AAGCCAGTGG | 1.014 ± 0.0035
GGGGCTCAGA | 0.993 ± 0.011
AGGTTACCGG | 0.987 ± 0.019
TAGTTGATTC | 1.01 ± 0.067
GGGCGTTCTG | 1.04 ± 0.023
TGGTGTCGT | 1.01 ± 0.011
GATTGTTGGG | 0.984 ± 0.02
GCTGGGCATT | 0.99173 ± 0.00022
TTCCTAAAGA | 1.06 ± 0.03

Sequence | switch fluorescence ratio
TTTGCTTAGA | 1.04 ± 0.025
ATAACTGTAT | 1.122 ± 0.0049
AGCTAGTTTA | 0.998 ± 0.0036
TTTGGCCGTT | 1.2 ± 0.26
CAATGCAGTG | 1 ± 0.019
AAGGGCTAGG | 0.999 ± 0.014
AGGAGGGACT | 1 ± 0.041
TGTGTGAATG | 1.03 ± 0.037
GTGAAAAATT | 0.9862 ± 0.0086
CGCGTTGGGG | 1.03 ± 0.044
AGTTCGGGAG | 0.99 ± 0.013
AATATTGGTG | 1.0416 ± 0.001
TAAATTGCTT | 0.991 ± 0.012
CTCTTTCTAC | 2.05 ± 1.3
ACAAGTGCGG | 1.05 ± 0.024
AAGAGGGGAC | 0.996 ± 0.056
TTAGAGCTGG | 1.01 ± 0.027
CGGTCCCATT | 0.992 ± 0.047
TTGGGGATAA | 1.07 ± 0.09
TATTGAGAGT | 0.991 ± 0.032
AAAAGTATGG | 1 ± 0.015
CGGCGGGGAA | 0.9757 ± 0.00091
TTCTCGGTTT | 1.02 ± 0.025

Sequence | switch fluorescence ratio
ACAACGGGGG | 1.05 ± 0.025
GAGTCAAGGG | 0.998 ± 0.021
TGTTGGGGG | 0.994 ± 0.062
ACAGGGAGTT | 0.9911 ± 0.0078
TCAAAGATAA | 0.98902 ± 2.8e-05
GGGTGAGGAG | 0.998 ± 0.025
TTGTGGTGTT | 0.986 ± 0.023
CCGAAGGTTA | 1.09 ± 0.032
GCCCGCCCGC | 1.38 ± 0.18
GTAGAGGGGG | 0.989 ± 0.014
GCAGTGTGCT | 0.982 ± 0.031
TTTATCAGCT | 0.9985 ± 0.0065
GCGTGCTGTA | 1.013 ± 0.006
AGGTTGAGGG | 0.984 ± 0.025
GATTTTCGCT | 0.971 ± 0.022
TGTTTTGAGT | 1.01 ± 0.013
CTGGATGACA | 0.986 ± 0.092
TTTTGGGTAT | 0.985 ± 0.032
AGTGGGGAGC | 0.978 ± 0.031
CGTAGAGGGG | 0.9858 ± 0.0073
CTACATCTTA | 1.02 ± 0.018
CGCCTTTGTG | 1 ± 0.019
TAGGGGGGAC | 1.19 ± 0.34

Sequence | switch fluorescence ratio
GGCTGTACTT | 1.03 ± 0.047
CGGGGCGTCA | 0.978 ± 0.032
GCTGCTGTAT | 1.01 ± 0.022
CGGGGGGATC | 1.02 ± 0.058
ATTTTGATTT | 1 ± 0.028
GTGGGACGGG | 1.03 ± 0.056
GGGGGAATGC | 1.07 ± 0.11
TTGAAACCGG | 0.998 ± 0.017
CGCGGTGGGC | 1.005 ± 0.0026
TTGGGCGCAG | 0.967 ± 0.019
GCTTTTTCTT | 1.018 ± 0.004
GAAATATTTT | 0.996 ± 0.05
CGGTTGGGCC | 0.993 ± 0.014
TAAATAGGGT | 1.05 ± 0.12
TGGGGGAGTT | 0.994 ± 0.026
GGACAGTTGT | 1.01 ± 0.057
CTGGTGGCCG | 1 ± 0.028
GTGGATTGGA | 1.05 ± 0.024
GTAATAACGG | 1.034 ± 0.0033
